The record followed here is patent US20160158332A1 (US Dept. of Health and Human Services, published 2016).

The target in this assay is T1, recombinant EcPyAMA1 (P. yoelii YM AMA1 residues 59-479 with a C-terminal histidine tag, E. coli, refolded) (Plasmodium yoelii YM).
T1 construct: not shown: C-terminal histidine tag
T1 chain: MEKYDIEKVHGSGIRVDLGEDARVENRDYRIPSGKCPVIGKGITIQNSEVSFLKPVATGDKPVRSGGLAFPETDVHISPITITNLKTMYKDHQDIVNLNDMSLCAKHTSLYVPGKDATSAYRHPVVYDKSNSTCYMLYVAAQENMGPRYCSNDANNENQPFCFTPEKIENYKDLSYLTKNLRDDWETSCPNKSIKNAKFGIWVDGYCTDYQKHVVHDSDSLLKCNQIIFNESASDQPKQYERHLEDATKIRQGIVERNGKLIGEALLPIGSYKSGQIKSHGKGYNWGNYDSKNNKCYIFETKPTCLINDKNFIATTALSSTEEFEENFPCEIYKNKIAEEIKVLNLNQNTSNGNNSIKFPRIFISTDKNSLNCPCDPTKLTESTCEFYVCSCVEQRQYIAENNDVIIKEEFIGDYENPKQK
Put plainly: binding of RON2L peptide to PyAMA1, FIG. 3E.

Ends that are not written are not given here.

B1: PyRON2L peptide with the two cysteines mutated to alanines (Cys 1856 and 1868 to Ala) (peptide)
peptide: DITQHATDIGMGPSTSAYTSLLPPPKSIAIQQTVKTVLTNSTLASMK-NH2
notes: they are the two cysteines of the peptide; also called RON2Lc/a; c/a
Regarding B1, the binding result is recorded as “no binding”.
